Patent US20250026849A1 (ARCELLX, published 2025)

T1: BCMA (Homo sapiens (Human), UniProt Q02223 1-54, limits assumed)
T1 sequence: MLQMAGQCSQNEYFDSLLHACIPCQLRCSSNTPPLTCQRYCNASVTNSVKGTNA


Target: T1, BCMA
Experiment: ELISA, format not described
Set-up: unit not given here

Binder	ELISA_avg
D-domain SEQ ID NO: 295 (designed binder) MGSWFYFKQKLAFIKWYLEALGGSEAELANFEIYIAEFEVMLQQYKGKGNPEVEALRKEAAAIRDELQAYRHN	7.23
D-domain SEQ ID NO: 254 (designed binder) MGSWGYFKYRLAMIKWYLEALGGSEAELASFESWIAEFEGSLQAYKGKGNPEVEALRKEAAAIRDELQAYRHN	13
D-domain SEQ ID NO: 265 (designed binder) MGSWANFKYRLALIKWHLEALGGSEAELASFEIWIADFEESLQWYKGKGNPEVEALRKEAAAIRDELQAYRHN	14.3
D-domain SEQ ID NO: 266 (designed binder) MGSWATFKYRLALIKWHLEALGGSEAELADFEEYIAGFEEGLQKYKGKGNPEVEALRKEAAAIRDELQAYRHN	15.1
D-domain SEQ ID NO: 282 (designed binder) MGSWQNFKYHLAMIKWYLEALGGSEAELANFEEFIAQFEINLQHYKGKGNPEVEALRKEAAAIRDELQAYRHN	9.55
D-domain SEQ ID NO: 279 (designed binder) MGSWLSFKHHLALIKWYLEALGGSEAELASFEAWIALFEHQLQQYKGKGNPEVEALRKEAAAIRDELQAYRHN	6.3
D-domain SEQ ID NO: 264 (designed binder) MGSWAHFKYRLAIIKFWLEALGGSEAELANFEEYIAEFESTLQVYKGKGNPEVEALRKEAAAIRDELQAYRHN	13.1
D-domain SEQ ID NO: 271 (designed binder) MGSWNEFKYHLAVIKFYLEALGGSEAELAHFETWIAEFEYELQKYKGKGNPEVEALRKEAAAIRDELQAYRHN	13.7
D-domain SEQ ID NO: 274 (designed binder) MGSWVDFKYHLAVIKWYLEALGGSEAELADFENWIAHFESILQQYKGKGNPEVEALRKEAAAIRDELQAYRHN	10.4
D-domain SEQ ID NO: 276 (designed binder) MGSWSHFKYHLALIKWYLEALGGSEAELAKFEFWIAEFEHNLQMYKGKGNPEVEALRKEAAAIRDELQAYRHN	7.93
D-domain SEQ ID NO: 278 (designed binder) MGSWQGFKYHLALIKFYLEALGGSEAELAHFEHWLAEFEHDLQTYKGKGNPEVEALRKEAAAIRDELQAYRHN	21.2
D-domain SEQ ID NO: 272 (designed binder) MGSWVQFKYHLAVIKFYLEALGGSEAELAHFETWIAEFEVALQGYKGKGNPEVEALRKEAAAIRDELQAYRHN	12.7
D-domain SEQ ID NO: 275 (designed binder) MGSWVEFKYHLAVIKFTLEALGGSEAELADFEEEIARFEMILQQYKGKGNPEVEALRKEAAAIRDELQAYRHN	6.92
D-domain SEQ ID NO: 285 (designed binder) MGSWSHFKYHLAIIKFYLEALGGSEAELAGFEIWIAKFEDELQMYKGKGNPEVEALRKEAAAIRDELQAYRHN	9.34
D-domain SEQ ID NO: 268 (designed binder) MGSWNTFKYHLAVIKFMLEALGGSEAELAFFEQWIAEFEVTLQSYKGKGNPEVEALRKEAAAIRDELQAYRHN	10.6
D-domain SEQ ID NO: 269 (designed binder) MGSWTQFKYHLAVIKWYLEALGGSEAELAGFEQWIAEFEKTLQEYKGKGNPEVEALRKEAAAIRDELQAYRHN	21.1
D-domain SEQ ID NO: 286 (designed binder) MGSWVGFKAHLAIIKWYLEALGGSEAELAGFEIFIADFEALLQMYKGKGNPEVEALRKEAAAIRDELQAYRHN	9.71
D-domain SEQ ID NO: 287 (designed binder) MGSWVNFKYKLAIIKYMLEALGGSEAELAFFEDWIAEFERTLQQYKGKGNPEVEALRKEAAAIRDELQAYRHN	7.39
D-domain SEQ ID NO: 292 (designed binder) MGSWFAFKHRLAVIKYMLEALGGSEAELAFFEHWIAQFEHDLQQYKGKGNPEVEALRKEAAAIRDELQAYRHN	12
D-domain SEQ ID NO: 290 (designed binder) MGSWTGFKYRLAIIKFMLEALGGSEAELAFFEQWIADFENELQYYKGKGNPEVEALRKEAAAIRDELQAYRHN	13.9
D-domain SEQ ID NO: 294 (designed binder) MGSWYKFKHKLAVIKYMLEALGGSEAELAWFEEWIAEFEVTLQDYKGKGNPEVEALRKEAAAIRDELQAYRHN	4.54
D-domain SEQ ID NO: 291 (designed binder) MGSWHNFKYRLAIIKFMLEALGGSEAELAWFENWIADFEDSLQDYKGKGNPEVEALRKEAAAIRDELQAYRHN	13.6
D-domain SEQ ID NO: 289 (designed binder) MGSWTNFKYKLAVIKFMLEALGGSEAELAFFEDWIAGFEIDLQNYKGKGNPEVEALRKEAAAIRDELQAYRHN	11.4
D-domain SEQ ID NO: 248 (designed binder) MGSWHEFKYRLALIKWYLEALGGSEAELATFEHHIAQFEWDLQKYKGKGNPEVEALRKEAAAIRDELQAYRHN	16.2
D-domain SEQ ID NO: 249 (designed binder) MGSWNMFKYRLAHIKWYLEALGGSEAELATFEAYIADFEVDLQKYKGKGNPEVEALRKEAAAIRDELQAYRHN	16.3
D-domain SEQ ID NO: 262 (designed binder) MGSWAGFKYRLAVIKYYLEALGGSEAELAHFEQWIAHFEGMLQDYKGKGNPEVEALRKEAAAIRDELQAYRHN	12.7
D-domain SEQ ID NO: 260 (designed binder) MGSWEQFKYRLAIIKYMLEALGGSEAELAWFESWIANFESDLQHYKGKGNPEVEALRKEAAAIRDELQAYRHN	11
D-domain SEQ ID NO: 261 (designed binder) MGSWQQFKYRLAIIKYYLEALGGSEAELAGFETYIAKFEEVLQSYKGKGNPEVEALRKEAAAIRDELQAYRHN	15.1
D-domain SEQ ID NO: 259 (designed binder) MGSWYNFKYRLAIIKFYLEALGGSEAELAQFEIWIAEFEHDLQGYKGKGNPEVEALRKEAAAIRDELQAYRHN	19.9
D-domain SEQ ID NO: 258 (designed binder) MGSWGAFKYRLAIIKFYLEALGGSEAELARFEEFIANFEHDLQNYKGKGNPEVEALRKEAAAIRDELQAYRHN	12.9

More lines, now with the values ahead:

ELISA_avg	Binder
11.6	D-domain SEQ ID NO: 255 (designed binder) MGSWHAFKYKLAMIKWYLEALGGSEAELAHFEEWIAEFEALLQEYKGKGNPEVEALRKEAAAIRDELQAYRHN
8.63	D-domain SEQ ID NO: 283 (designed binder) MGSWYNFKYHLAIIKWWLEALGGSEAELADFEHYIADFERNLQEYKGKGNPEVEALRKEAAAIRDELQAYRHN
6.45	D-domain SEQ ID NO: 296 (designed binder) MGSWFSFKHHLAVIKWNLEALGGSEAELASFEEQIAEFESVLQAYKGKGNPEVEALRKEAAAIRDELQAYRHN
14.9	D-domain SEQ ID NO: 281 (designed binder) MGSWIEFKYKLAIIKFYLEALGGSEAELAHFEHWIADFEFVLQQYKGKGNPEVEALRKEAAAIRDELQAYRHN
13.2	D-domain SEQ ID NO: 273 (designed binder) MGSWVDFKYHLAVIKFWLEALGGSEAELANFETWIANFEQELQMYKGKGNPEVEALRKEAAAIRDELQAYRHN
11.3	D-domain SEQ ID NO: 280 (designed binder) MGSWSEFKYKLALIKWYLEALGGSEAELAHFEGWIANFETTLQKYKGKGNPEVEALRKEAAAIRDELQAYRHN
12.8	D-domain SEQ ID NO: 270 (designed binder) MGSWNQFKYRLAVIKFYLEALGGSEAELAHFETWIAAFEEQLQFYKGKGNPEVEALRKEAAAIRDELQAYRHN
8.85	D-domain SEQ ID NO: 277 (designed binder) MGSWYHFKYHLALIKWYLEALGGSEAELAHFEHWIAEFEWTLQQYKGKGNPEVEALRKEAAAIRDELQAYRHN
18.4	D-domain SEQ ID NO: 284 (designed binder) MGSWYQFKYHLAIIKWYLEALGGSEAELAGFENYIATFEQELQQYKGKGNPEVEALRKEAAAIRDELQAYRHN
3.71	D-domain SEQ ID NO: 293 (designed binder) MGSWYEFKHRLAVIKYMLEALGGSEAELAFFENWIAQFEHELQTYKGKGNPEVEALRKEAAAIRDELQAYRHN
9.34	D-domain SEQ ID NO: 288 (designed binder) MGSWSNFKYRLAVIKYMLEALGGSEAELAFFEDWIADFELHLQVYKGKGNPEVEALRKEAAAIRDELQAYRHN
7.37	D-domain SEQ ID NO: 267 (designed binder) MGSWTHFKYRLALIKWWLEALGGSEAELAGFEVHIADFEAQLQMYKGKGNPEVEALRKEAAAIRDELQAYRHN
15.1	D-domain SEQ ID NO: 257 (designed binder) MGSWNDFKYRLAIIKYYLEALGGSEAELAHFESYIASFEHDLQNYKGKGNPEVEALRKEAAAIRDELQAYRHN
6.03	D-domain SEQ ID NO: 250 (designed binder) MGSWHGFKYRLAIIKWWLEALGGSEAELAFFEEWIASFERDLQIYKGKGNPEVEALRKEAAAIRDELQAYRHN
7.43	D-domain SEQ ID NO: 263 (designed binder) MGSWTAFKYRLAIIKFYLEALGGSEAELAHFESYIAHFEDMLQHYKGKGNPEVEALRKEAAAIRDELQAYRHN
